Paper PMC3784749

Target: glutathione S-transferase from Schistosoma japonicum (Schistosoma japonicum)
Test: SAXS; GST alone in 20 mM phosphate, 80 mM NaCl, pH 8.0, 20 °C; shape reconstruction (GASBOR, DAMAVER) superimposed on crystal structure 1UA5

glutathione S-transferase from Schistosoma japonicum (enzyme)
stoichiometry N: 2
